Literature values in article PMC4755228.

Target: CD38 (Homo sapiens) (UniProt P28907)
Assay: BIAcore SPR

Kd: 4.36 nM
Substance: daratumumab
